# From the supplement of paper PMC12783771
# ± gives the standard deviation of the averaged measurements.
# B1: library; numbered along this chain (parent)
# chain: MNIQIGELAKRTACPVVTIRFYEQEGLLPPPGRSRGNFRLYGEEHVERLQFIRHCRSLDMPLSDVRTLLSYRKRPDQDCGEVNMLLDEHIRQVESRIGALLELKHHLVELREACSGARPAQSCGILQGLSDCVCDTRGTTAHPSD
# Experiments:
# [1] = variants of: B1; assay: sfGFP reporter fluorescence (15 h) (µM FITC); higher = higher leak; conditions: library round: Round 1; ligand: none
# Experimental: (§1)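 Cell-free biosensing: 1 µL Echo-assembled CFE reactions with linear PbrR variant templates (5 nM) and pPbrR-sfGFP reporter, with 1 µM Pb, 30 µM Zn or no ligand; endpoint sfGFP fluorescence after 15 h at 30 °C calibrated as µM FITC. Round 1 ML-predicted PbrR mutants; 3 biological replicates.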
# [2] = variants of: B1; assay: sfGFP reporter fluorescence (15 h) (µM FITC); higher = stronger transcriptional activation; conditions: library round: Round 1
# Experimental: as §1
# [3] = variants of: B1; assay: sfGFP reporter fluorescence (15 h) (µM FITC); higher = higher leak; conditions: library round: Round 0; ligand: none
# Experimental: (§2)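 Cell-free (BL21 Star DE3 extract, PANOx-SP) biosensing: 1 µL Echo-assembled reactions with linear PbrR variant templates (5 nM) and pPbrR-sfGFP reporter, with 1 µM Pb (lead chloride), 30 µM Zn (zinc acetate) or no ligand; endpoint sfGFP fluorescence after 15 h at 30 °C, calibrated as µM FITC. Round 0 library (alanine scan, site saturation, combinatorial) of PbrR from Cupriavidus metallidurans; 2 biological replicates.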
# [4] = variants of: B1; assay: sfGFP reporter fluorescence (15 h) (µM FITC); higher = stronger transcriptional activation; conditions: library round: Round 0
# Experimental: as §2
Variant,sfGFP reporter fluorescence [1],sfGFP reporter fluorescence ([2]; ligand: 1 µM Pb),sfGFP reporter fluorescence ([2]; ligand: 30 µM Zn),sfGFP reporter fluorescence [3],sfGFP reporter fluorescence ([4]; ligand: 1 µM Pb),sfGFP reporter fluorescence ([4]; ligand: 30 µM Zn)
P61D D64M R111L,0.177 ± 0.015,0.323 ± 0.09,1.43 ± 0.099,,,
M84Q R111L,0.0624 ± 0.0054,0.0651 ± 0.0026,0.122 ± 0.0058,,,
N83T E112M,0.06267 ± 0.00037,0.0849 ± 0.0046,0.162 ± 0.0094,,,
N83T E112F,0.0601 ± 0.0026,0.0667 ± 0.0032,0.0853 ± 0.0022,,,
D64T R111F,0.09114 ± 0.00056,0.181 ± 0.022,1.71 ± 0.025,,,
unchanged,0.0626 ± 0.0021,0.0729 ± 0.0052,0.487 ± 0.22,0.0588 ± 0.0029,0.0826 ± 0.03,0.722 ± 0.087
I90L G128T D135A,0.0632 ± 0.00092,0.0679 ± 0.0048,0.266 ± 0.031,,,
N83T I90S,0.0629 ± 0.0014,0.0715 ± 0.0022,0.109 ± 0.0024,,,
P61N D135R,0.0732 ± 0.00085,0.164 ± 0.0087,0.708 ± 0.075,,,
P61N D135A,0.0764 ± 0.0016,0.152 ± 0.014,0.791 ± 0.096,,,
D64K D131L,0.176 ± 0.017,0.513 ± 0.098,1.89 ± 0.093,,,
V46F K104V,0.0666 ± 0.0012,0.103 ± 0.0038,0.475 ± 0.047,,,
N83T D131S D135A,0.0613 ± 0.0024,0.0871 ± 0.0043,0.193 ± 0.0075,,,
D64A C134M,0.135 ± 0.0022,0.233 ± 0.0049,1.77 ± 0.21,,,
E94D K104V,0.0655 ± 0.0018,0.101 ± 0.047,0.352 ± 0.039,,,
M60L D64K E81A R111A,0.488 ± 0.013,1.37 ± 0.17,2.16 ± 0.59,,,
S115G D131C,0.0572 ± 0.0013,0.0619 ± 0.0016,0.0992 ± 0.0037,,,
N83T L107C G128I,0.195 ± 0.0097,0.702 ± 0.17,1.75 ± 0.2,,,
E112I D135A,0.063 ± 0.0023,0.06438 ± 0.00042,0.176 ± 0.0035,,,
N83T L107C G128M D135A,0.561 ± 0.031,1.15 ± 0.069,2.06 ± 0.28,,,
P61N D131Y,0.0734 ± 0.00076,0.115 ± 0.0094,0.59 ± 0.078,,,
P61N D131C,0.108 ± 0.0091,0.428 ± 0.043,1.59 ± 0.16,,,

Variant,sfGFP reporter fluorescence [1],sfGFP reporter fluorescence ([2]; ligand: 1 µM Pb),sfGFP reporter fluorescence ([2]; ligand: 30 µM Zn),sfGFP reporter fluorescence [3],sfGFP reporter fluorescence ([4]; ligand: 1 µM Pb),sfGFP reporter fluorescence ([4]; ligand: 30 µM Zn)
L110I R111A,0.0628 ± 0.00092,0.0635 ± 0.0042,0.415 ± 0.045,,,
D131H D135A,0.065 ± 0.00092,0.0777 ± 0.0089,0.402 ± 0.014,,,
D131H D135K,0.0669 ± 0.0015,0.0876 ± 0.0064,0.579 ± 0.071,,,
P61N D64K D131C,0.119 ± 0.0056,0.297 ± 0.065,0.868 ± 0.068,,,
D131S P143A,0.0606 ± 0.0013,0.07916 ± 0.00037,0.373 ± 0.042,,,
M60L D131C,0.0866 ± 0.0039,0.248 ± 0.025,0.694 ± 0.081,,,
I3M D131C,0.066 ± 0.0019,0.102 ± 0.016,0.446 ± 0.039,,,
N83T G128I,0.059 ± 0.00064,0.133 ± 0.011,0.387 ± 0.038,,,
R33M Q127T,0.0635 ± 0.0027,0.0614 ± 0.0047,0.0645 ± 0.0022,,,
E43C K104V,0.065 ± 0.0013,0.0922 ± 0.0039,0.162 ± 0.011,,,
N83T D131S P143A,0.059 ± 0.0033,0.0792 ± 0.0071,0.156 ± 0.017,,,
L107N G128M,0.0744 ± 0.0042,0.225 ± 0.02,0.917 ± 0.088,,,
K104R C134I,0.0715 ± 0.00073,0.152 ± 0.007,1.14 ± 0.072,,,
M60L D64K R111L,0.205 ± 0.0039,0.676 ± 0.1,1.99 ± 0.49,,,
G128S D135A,0.0652 ± 0.0016,0.0925 ± 0.0068,0.604 ± 0.015,,,
M60L D64T L107C,0.71 ± 0.032,0.754 ± 0.061,2.46 ± 0.078,,,
E43M G128I,0.077 ± 0.0028,0.206 ± 0.025,1.23 ± 0.086,,,
D87S,0.0624 ± 0.0015,0.0699 ± 0.0015,0.162 ± 0.017,,,
G128I D131E,0.0825 ± 0.0029,0.203 ± 0.022,1.34 ± 0.037,,,
D131A D135E,0.06499 ± 0.00042,0.0805 ± 0.0086,0.571 ± 0.06,,,
D131A D135S,0.0699 ± 0.0026,0.0955 ± 0.0012,0.604 ± 0.0087,,,
